The assay deals with T1, PN7740, amino acids 27-321 (prey of Example 34) (Saccharomyces cerevisiae; human, UniProt P04386 768-881).
T1 construct: also called novel protein PN7740
T1 sequence: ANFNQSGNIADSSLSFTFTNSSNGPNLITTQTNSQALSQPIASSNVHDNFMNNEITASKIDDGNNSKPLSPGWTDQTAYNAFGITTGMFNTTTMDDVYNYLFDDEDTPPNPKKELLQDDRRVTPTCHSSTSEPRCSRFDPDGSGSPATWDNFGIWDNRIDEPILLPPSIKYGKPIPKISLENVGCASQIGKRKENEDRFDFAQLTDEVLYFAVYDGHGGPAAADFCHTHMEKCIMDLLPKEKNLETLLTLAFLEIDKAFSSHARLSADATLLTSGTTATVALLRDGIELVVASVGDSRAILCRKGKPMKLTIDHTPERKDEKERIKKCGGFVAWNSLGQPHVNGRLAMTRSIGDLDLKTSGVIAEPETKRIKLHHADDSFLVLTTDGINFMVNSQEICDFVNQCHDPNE
The assay is described as follows: yeast two-hybrid search.

Method: The resulting diploid yeast cells expressing proteins interacting with the bait protein were selected for the ability to synthesize tryptophan, leucine, histidine, and adenine. DNA was prepared from each clone, transformed by electroporation into E. coli strain KC8 (Clontech KC8 electrocompetent cells, Catalog No. C2023- 1), and the cells were selected on ampicillin-containing plates in the absence of either tryptophane (selection for the bait plasmid) or leucine (selection for the library plasmid). DNA for both plasmids was prepared and sequenced by the dideoxynucleotide chain termination method. […] Clones that gave a positive signal in the p-galactosidase assay were considered false-positives and discarded. Plasmids for the remaining clones were transformed into yeast cells together with the original bait plasmid. Clones that gave a positive signal in the p-galactosidase assay were considered true positives.

B1: PSD95, amino acids 149-255 (bait of Example 34) (other, UniProt P04386 1-147, looked up)
chain: MKLLSSIEQACDICRLKKLKCSKEKPKCAKCLKNNWECRYSPKTKRSPLTRAHLTEVESRLERLEQLFLLIFPREDLDMILKMDSLQDIKALLTGLFVQDNVNKDAVTDRLASVETDMPLTLRQHRISATSSSEESSNKGQRQLTVSMRRKPPAEKVMEIKLIKGPKGLGFSIAGGVGNQHIPGDNSIYVTKIIEGGAAHKDGRLQIGDKILAVNSVGLEDVMHEDAVAALKNTYDVVYLKVAKPSNAYLSDSY
notes: also called DLG4; SAP-90
On to B1, for which the binding result is “binds”.

For the origin of these results see patent publication US20020106676A1 (MYRIAD GENETICS, published 2002).
